The supplement of paper PMC7877785
± gives the uncertainty stated by the source.

Test: self-splicing fitness, log relative to wild type (ln ratio); higher = more splicing; Tetrahymena group I intron in knt gene, E. coli kanamycin selection, DiMSum; sequences stand for … in CUCUCU…GGAGGGAAAAGUUAUCAGGCAUGCACCUGGUAGCUAGUCUUUAAACCAAUAGAUUGCAUCGGUUUAAAAGGCAAGACCGUCAAAUUGCGGGAAAGGGGUCAACAGCCGUUCAGUACCAAGUCUCAGGGGAAACUUUGAGAUGGCCUUGCAAAGGGUAUGGUAAUAAGCUGACGGACAUGGUCCUAACCACGCAGCCAAGUCCUAAGUCAACAGAUCUUCUGUUGAUAUGGAUGCAGUUCACAGACUAAAUGUCGGUCGGGGAAGAUGUAUUCUUCUCAUAAGAUAUAGUCGGACCUCUCCUUAAUGGGAGCUAGCGGAUGAAGUGAUGCAACACUGGAGCCGCUGGGAACUAAUUUGUAUGCGAAAGUAUAUUGAUUAGUUUUGGAGUACUCGUGGUCG
How it was run: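 Pooled colonies went to amplicon sequencing on an Illumina HiSeq 2500 after six replicate transformations. The plates were LB agar with 100 μg/mL carbenicillin, 50 μM IPTG and 0.2% rhamnose, with or without 25 μg/mL kanamycin, incubated overnight at 37°C or 30°C. The E. coli BL21(DE3) library had all eight P1ex-region intron nucleotides randomised, the intron placed in the knt kanamycin-resistance gene on pET-22b(+). DiMSum fitness is the error-weighted combination of replicate fold changes, kanamycin against none, normalised to wild type.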

| Sequence | self-splicing fitness (ln) (30 °C) | self-splicing fitness (ln) (37 °C) |
| --- | --- | --- |
| AGCCAGCAAUAUUACGGAAC | -2.72 ± 0.18 | -3.1 ± 0.3 |
| CCUCAGCAAUAUUACGGCUA | -3.62 ± 0.4 | -1.72 ± 0.25 |
| CGCUAGCAAUAUUACGAAUC | -3.64 ± 0.21 | -0.947 ± 0.15 |
| AUGCAGCAAUAUUACGCGCG | -0.941 ± 0.1 | -0.349 ± 0.1 |
| CUUUAGCAAUAUUACGUUUC | – | -2.15 ± 0.23 |
| AGAGAGCAAUAUUACGACUU | -1.7 ± 0.15 | -0.522 ± 0.15 |
| GUAAAGCAAUAUUACGAGAA | -2.06 ± 0.14 | -0.181 ± 0.21 |
| GAUGAGCAAUAUUACGUCCG | -3.75 ± 0.43 | -2.09 ± 0.32 |
| GCUGAGCAAUAUUACGGGGU | – | -2.36 ± 0.28 |
| UUGCAGCAAUAUUACGGCGA | -1.53 ± 0.12 | -0.929 ± 0.14 |
| GGAGAGCAAUAUUACGCACA | – | -0.604 ± 0.3 |
| GCCUAGCAAUAUUACGGACC | -1.6 ± 0.19 | -1.31 ± 0.28 |
| GUAAAGCAAUAUUACGUGCA | 0.139 ± 0.058 | 0.551 ± 0.093 |
| CAUUAGCAAUAUUACGGGCC | -2.71 ± 0.23 | -2.95 ± 0.43 |
| GCUUAGCAAUAUUACGAGGG | -1.83 ± 0.11 | -1.36 ± 0.11 |
| UGAAAGCAAUAUUACGUUGA | -3.13 ± 0.17 | -1.23 ± 0.15 |
| ACCGAGCAAUAUUACGCCUU | -2.75 ± 0.24 | -1.32 ± 0.19 |
| GCCUAGCAAUAUUACGGGUC | -4.6 ± 0.36 | -2.89 ± 0.25 |
| AUUGAGCAAUAUUACGCAGU | -2.95 ± 0.36 | -2.11 ± 0.38 |
| UGUAAGCAAUAUUACGGCAA | -0.056 ± 0.1 | 0.0443 ± 0.12 |
| GCGCAGCAAUAUUACGUAAC | -1.3 ± 0.088 | -0.468 ± 0.12 |

| Sequence | self-splicing fitness (ln) (30 °C) | self-splicing fitness (ln) (37 °C) |
| --- | --- | --- |
| UAGGAGCAAUAUUACGAAGU | – | -2.35 ± 0.43 |
| UUACAGCAAUAUUACGGAGA | -1.79 ± 0.1 | -1.11 ± 0.13 |
| AGCUAGCAAUAUUACGCUUA | -1.8 ± 0.19 | -2.01 ± 0.19 |
| UGAGAGCAAUAUUACGCAUA | -3.24 ± 0.44 | – |
| CGAAAGCAAUAUUACGUUAU | -3.68 ± 0.31 | -3.5 ± 0.29 |
| CACCAGCAAUAUUACGCCUG | -1.11 ± 0.076 | -0.247 ± 0.097 |
| GUUCAGCAAUAUUACGAGGC | -2.38 ± 0.48 | -1.27 ± 0.2 |
| GUAGAGCAAUAUUACGUGGA | – | -3.25 ± 0.3 |
| AGCGAGCAAUAUUACGACUC | -2.06 ± 0.21 | -1.3 ± 0.24 |
| GGACAGCAAUAUUACGAAUU | -0.588 ± 0.076 | 0.11 ± 0.11 |
| UGCUAGCAAUAUUACGUUAC | – | -1.91 ± 0.23 |
| AAGAAGCAAUAUUACGCCGC | -2.91 ± 0.25 | -2.63 ± 0.26 |
| GAGAAGCAAUAUUACGUAGC | -3.47 ± 0.35 | -0.876 ± 0.21 |
| CCACAGCAAUAUUACGUUAG | -1.56 ± 0.062 | -0.188 ± 0.071 |
| GAUCAGCAAUAUUACGGACC | -0.933 ± 0.32 | -1.08 ± 0.36 |
| GACGAGCAAUAUUACGCCAU | -2.23 ± 0.49 | – |
| AUCAAGCAAUAUUACGUGGA | -2.28 ± 0.14 | -1.71 ± 0.12 |
| GGAUAGCAAUAUUACGGACU | -0.129 ± 0.14 | -0.134 ± 0.19 |
| AUUGAGCAAUAUUACGUAAA | -1.7 ± 0.15 | -2.91 ± 0.34 |
| AAUCAGCAAUAUUACGUUUU | -0.639 ± 0.058 | -0.399 ± 0.085 |
